Entries after “also recorded” stand apart in the source; their conditions may differ. Like-named read-outs stand apart in the source and are kept apart here.

Test [1] concerns the target T1, mitochondrial ATP synthase (ETC Complex V) in rat liver submitochondrial particles (Rattus norvegicus, UniProt P10719+P15999).
T1 construct: rat liver submitochondrial particles (SMP) prepared from male Sprague-Dawley rat livers; from tissue; host or cells: male Sprague-Dawley rat liver, submitochondrial particles (method of Walker et al. 1995)
Briefly: Oligomycin-sensitive ATPase (ATP hydrolase) activity in rat liver submitochondrial particles (SMP). It counts as biochemical. Particulars: read-out: IC50 for oligomycin-sensitive ATPase inhibition. The procedure:
The IF1(42-58) polypeptide was also tested for its ability to inhibit the F0-F1-ATPase in rat ASMPs (alkaline submitochondrial particles) prepared as in the preceding Example. […] ATP hydrolase activity was expressed as the percent of detectable activity in the absence of added IF1-containing fusion protein, and the level of oligomycin-inhibitable activity was also determined (FIG. 8).
The effects of the IF1 peptides on ATPase activity were determined by assaying ATPase in rat liver submitochondrial particles (SMP) prepared from male Sprague-Dawley rat livers according to the method of Walker et al. (1995 Meth. Enzymol. 260:163-190). […] Louis, Mo., unless otherwise noted) for 10 min at room temperature. The mixtures were then added to assay buffer (50 mM Tris-HCl, 3.3 mM MgCl2, pH 8.0) in a 96-well plate and ATPase activity was initiated by the addition of 1 mM ATP, 1 mM phophoenolypyruvate, 3 U/ml pyruvate kinase, 10 U/ml lactate dehydrogenase and 0.3 mM NADH. Reactions were monitored by recording absorbance in “kinetic read” mode at 340 nm for 10 min at 30° C. in a termperature-controlled Spectromax Plus-384™ 96-well plate reader (Molecular Devices, Inc., Sunnyvale, Calif.) according to the manufacturer's instructions. In this mode, the plate reader recorded an absorbance value for each well at approximately nine-second intervals. A parallel set of reactions was set up identically except for the addition of 10 μg/ml oligomycin, to correct for the component of ATPase activity that was oligomycin-inhibitable.
Dose-response curves were generated for IF1 peptides 14-33 (SEQ ID NO:30), 14-47 (SEQ ID NO:29), 14-46 (SEQ ID NO:67), 14-45 (SEQ ID NO:66), 14-44 (SEQ ID NO:65), 14-43 (SEQ ID NO:64) and 14-42 (SEQ ID NO:63) by setting up SMP ATPase reactions as described above with serial dilutions of the IF1 peptides over a range of several orders of magnitude between 10^−4 and 10^2 μM (FIG. 12). Data were plotted and IC50 values were calculated using Prism software (GraphPad, San Diego, Calif.) according to the nianufacturer's instructions. […]

A further test concerns INS-1 cells. Briefly: Glucose-stimulated insulin secretion (GSIS) in INS-1 cells with tat.mito.14-47. Particulars: 8 mM glucose, varying amounts of fusion protein, FIG. 13. Format: cell-based, rat. The protocol: The nucleic acid encoding a tat.mito.14-47 fusion protein was constructed essentially as described in Example 2. The tat.mito.14-47 fusion protein (SEQ ID NO:71) enhanced GSIS in INS-1 cells when used in the assay conditions described as follows. Briefly, INS-1 cells were seeded into 12-well plates containing RPMI media supplemented as described at 0.7×10^6 cells/well and cultured at 37° C., 5% CO2 for 2 days. Cells were preincubated in the presence or absence of varying amounts of tat.mito.14-47 or vehicle control in glucose-free RPMI media supplemented with 1% FCS for 1 hr at 37° C. in a humidified 5% CO2/95% air atmosphere. Cells were rinsed with glucose-free modified KRH buffer (134 mM NaCl, 3.6 mM KCl, 0.5 mM NaH2PO4, 0.5 mM MgCl2, 1.5 mM CaCl2, 10 mM HEPES, 5 mM NaHCO3, 0.1% BSA), incubated in the same buffer for 30 min at 37° C. in a humidified 5% CO2/95% air atmosphere, again in the presence or absence of varying amounts of tat.mito.14-47 or vehicle control. Then fresh modified KRH buffer containing 0.25 mM isobutylmethyl xanthine and 8 mM glucose was added, the cells were stimulated for 30 min at 37° C., 5% CO2 and then culture supernatants were collected. Insulin concentrations in the supernatants were measured by immunoasssay (Alpco ELISA Kit) and normalized to protein (Pierce/BCA Kit) according to the manufacturers' instructions.

B1: rat IF1: intact rat inhibitor protein of mitochondrial ATP synthase (SEQ ID NO:13), comparator for peptide 14-47 (protein, listed as Rattus norvegicus)
chain: MAGSALAVRARLGVWGMRVLQTRGFGSDSSESMDSGAGSIREAGGAFGKREKAEEDRYFREKTREQLAALKKHHEDEIDHHSKEIERLQKQIERHKKKIKYLKNSEH
Take B1: the concentration for half-maximal inhibition (IC50) is 190 ± 24 nM in test [1] (pH 6.5), 420 ± 56 nM in test [1] (pH 7.25) and more than 800 nM in test [1] (pH 8).

B2: tat.mito.14-47: fusion protein SEQ ID NO:71: polyhistidine tag, tat, mitochondrial targeting sequence, IF1 fragment 14-47 (protein)
chain: MGGSHHHHHHGMASMTGGQQMGRDLYDDDDKDPSSGYGRKKRRQRRRGMAGSALAVRARLGVWGMRVLQTRGFSIREAGGAFGKREKAEEDRYFREKTREQLAALKK
modifications: Fusion protein
B2: the “effect on GSIS” value with INS-1 cells is reported as “enhanced GSIS; also recorded: further induced glucose stimulated insulin secretion in a dose dependent manner”.

One may read the IC50 as the concentration that inhibits the measured activity by half.

Source of the values: patent publication US20030026781A1, “Compositions and methods for regulating endogenous inhibitor of ATP synthase, including treatment for diabetes” (MitoKor, priority 1999, published 2003).
